Drawing on paper PMC2845462, this text covers amount co-precipitated after 100 μg/mL RNase A, against the untreated lysate for 1 substance.

The test concerns the target FLAG-HA-Twi1p-WT (Tetrahymena thermophila) (UniProt Q8MXZ9). Description: co-IP.

Regarding Giw1p (natural protein), the amount co-precipitated after 100 μg/mL RNase A, against the untreated lysate was 60%.
